Test results taken from article PMC11417369, “DNA sequence and chromatin differentiate sequence-specific transcription factor binding in the human malaria parasite Plasmodium falciparum”.
Numbering of substitutions follows the chain as printed.

T1: PF3D7_0420300 D1 (Plasmodium falciparum, UniProt Q8I1N6 1956-2015)
T1 sequence: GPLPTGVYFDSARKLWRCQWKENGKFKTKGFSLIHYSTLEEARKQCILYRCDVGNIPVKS

B1: CACACA_site466 (dsDNA)
DNA 1: CAAAAAAAATAAAACACACACACAAAAAAATAAAAA
DNA 2: TTTTTATTTTTTTGTGTGTGTGTTTTATTTTTTTTG
B2: CACACA_site6309 (dsDNA)
DNA 1: ACATCAAGCAGACACACACACACACGCACACGCACA
DNA 2: TGTGCGTGTGCGTGTGTGTGTGTGTCTGCTTGATGT
B3: CACACA_site8411 (dsDNA)
DNA 1: AAAAAAAAAAAACACACACACACACCGACAAAATAT
DNA 2: ATATTTTGTCGGTGTGTGTGTGTGTTTTTTTTTTTT
B4: CACACA_site7364 (dsDNA)
DNA 1: AAAAAAAAAAAAAACACACACACACGCATACACATA
DNA 2: TATGTGTATGCGTGTGTGTGTGTTTTTTTTTTTTTT
B5: CACACA_site6794 (dsDNA)
DNA 1: B4 DNA 1 with C33A, T35A, A36T
DNA 2: B4 DNA 2 with T1A, A2T, G4T
B6: CACACA_site6496 (dsDNA)
DNA 1: TATTAAACTTGACACACACACACACGCATATATAAA
DNA 2: TTTATATATGCGTGTGTGTGTGTGTCAAGTTTAATA
B7: CACACA_site8057 (dsDNA)
DNA 1: ATTAAACATACATATACACACACACCCACCCACCCA
DNA 2: TGGGTGGGTGGGTGTGTGTGTATATGTATGTTTAAT
B8: CACACA_site5102 (dsDNA)
DNA 1: GAGAAAAATAAATACACACACATAAATAAATACATA
DNA 2: TATGTATTTATTTATGTGTGTGTATTTATTTTTCTC
B9: CACACA_site9118 (dsDNA)
DNA 1: AAAAAAAACGCACATACACACACACCCATATATATA
DNA 2: TATATATATGGGTGTGTGTGTATGTGCGTTTTTTTT
B10: CACACA_site6364 (dsDNA)
DNA 1: ATAATCCTTAGACACACACACACACGAATAAATAAA
DNA 2: TTTATTTATTCGTGTGTGTGTGTGTCTAAGGATTAT
B11: CACACA_site6342 (dsDNA)
DNA 1: AAAAAAAACAGACACACACACAAATATTTATATATC
DNA 2: GATATATAAATATTTGTGTGTGTGTCTGTTTTTTTT
B12: CACACA_site6531 (dsDNA)
DNA 1: AATAAATTTAGACACACACACACATATAAATAAATA
DNA 2: TATTTATTTATATGTGTGTGTGTGTCTAAATTTATT
B13: CACACA_site1104 (dsDNA)
DNA 1: AAAAAAAAAAAAAACACACACACAAAAAAAAATATA
DNA 2: TATATTTTTTTTTGTGTGTGTGTTTTTTTTTTTTTT
B14: CACACA_site7867 (dsDNA)
DNA 1: AAGGATATAACATACACACACACACGGATATAAATA
DNA 2: TATTTATATCCGTGTGTGTGTGTATGTTATATCCTT
B15: CACACA_site2752 (dsDNA)
DNA 1: CAAACATATTAATGTACACACACCCACCCACAAACA
DNA 2: TGTTTGTGGGTGGGTGTGTGTACATTAATATGTTTG
B16: CACACA_site757 (dsDNA)
DNA 1: AAACTTGACAGACACACACACACATATATAAAAAAA
DNA 2: TTTTTTTATATATGTGTGTGTGTGTCTGTCAAGTTT
B17: CACACA_site399 (dsDNA)
DNA 1: AACAACCAAAGGCACACACACAAAAAAAAAAATATA
DNA 2: TATATTTTTTTTTTTGTGTGTGTGCCTTTGGTTGTT
B18: CACACA_site7644 (dsDNA)
DNA 1: AAAAAATACAGACACACACACACACGCATATAAATA
DNA 2: TATTTATATGCGTGTGTGTGTGTGTCTGTATTTTTT
B19: CACACA_site1736 (dsDNA)
DNA 1: ATAGTATACAGACACACACACACACCCATATATATA
DNA 2: TATATATATGGGTGTGTGTGTGTGTCTGTATACTAT
B20: CACACA_site9187 (dsDNA)
DNA 1: AAAAAAAAAATACATACACACACACCCACCCATATA
DNA 2: TATATGGGTGGGTGTGTGTGTATGTATTTTTTTTTT
B21: CACACA_site1251 (dsDNA)
DNA 1: TACAATTTAAAACACACACACAATAATACATATATA
DNA 2: TATATATGTATTATTGTGTGTGTGTTTTAAATTGTA
B22: CACACA_site7431 (dsDNA)
DNA 1: CTTGTCATTTTGCACACACACATGTATAGGTTATTA
DNA 2: TAATAACCTATACATGTGTGTGTGCAAAATGACAAG
B23: CACACA_site2906 (dsDNA)
DNA 1: AATATAAATAAACACACACACATATATATATATATT
DNA 2: AATATATATATATATGTGTGTGTGTTTATTTATATT
B24: CACACA_site710 (dsDNA)
DNA 1: AAAAAAAGATTATACACACACATATATAAACCTACA
DNA 2: TGTAGGTTTATATATGTGTGTGTATAATCTTTTTTT
B25: CACACA_site5111 (dsDNA)
DNA 1: TATTTATAAATTTACACACACACATGGGAACATAAA
DNA 2: TTTATGTTCCCATGTGTGTGTGTAAATTTATAAATA
B26: CACACA_site494 (dsDNA)
DNA 1: CATACATAGAAACACACACACACACCCACCCACAAA
DNA 2: TTTGTGGGTGGGTGTGTGTGTGTGTTTCTATGTATG
B27: CACACA_site5427 (dsDNA)
DNA 1: TAATTATGCGGACACACACACACACCCAACTAAAAA
DNA 2: TTTTTAGTTGGGTGTGTGTGTGTGTCCGCATAATTA
B28: CACACA_site2569 (dsDNA)
DNA 1: B27 DNA 1 with G10A
DNA 2: B27 DNA 2 with C27T
B29: CACACA_site5271 (dsDNA)
DNA 1: TATAAATACAGATACACACACACACCGATATATATA
DNA 2: TATATATATCGGTGTGTGTGTGTATCTGTATTTATA
B30: CACACA_site370 (dsDNA)
DNA 1: ATCAAGCACCAACACACACACACACCCCCACCCACA
DNA 2: TGTGGGTGGGGGTGTGTGTGTGTGTTGGTGCTTGAT
B31: CACACA_site8724 (dsDNA)
DNA 1: AACACATACATATATACACACACAAAATAATAAAAT
DNA 2: ATTTTATTATTTTGTGTGTGTATATATGTATGTGTT
B32: CACACA_site8742 (dsDNA)
DNA 1: TTATGTTCTTTAAAACCACACACCCCCCAACCCCCC
DNA 2: GGGGGGTTGGGGGGTGTGTGGTTTTAAAGAACATAA

biological target: T1, PF3D7_0420300 D1; assay: gcPBM; about 25 ug protein; PBS, 1% milk, 0.2 mg/ml BSA, salmon testes DNA, 0.03% Triton X-100; conditions: tags: N-terminal GST (pGEX-4T-1), kept; label: surface-attached array probe

Compared with B1, B2 is higher in binding signal: 10.2 ln median PBM intensity, better of two orientations for the first, 10.4 ln median PBM intensity, better of two orientations for the second.

B3 and B4 are the same in binding signal: 10.2 ln median PBM intensity, better of two orientations for the first, 10.2 ln median PBM intensity, better of two orientations for the second.

First: B5
Second: B6
The binding signal of the first is lower: 10.1 ln median PBM intensity, better of two orientations for the first, 10.3 ln median PBM intensity, better of two orientations for the second.

Compared with B7, B8 is lower in binding signal: 10.9 ln median PBM intensity, better of two orientations for the first, 10.2 ln median PBM intensity, better of two orientations for the second.

Compared with B9, B10 is higher in binding signal: 10 ln median PBM intensity, better of two orientations for the first, 10.3 ln median PBM intensity, better of two orientations for the second.

B11 and B12 are the same in binding signal: 10.2 ln median PBM intensity, better of two orientations for the first, 10.2 ln median PBM intensity, better of two orientations for the second.

Compared with B13, B14 is higher in binding signal: 10.1 ln median PBM intensity, better of two orientations for the first, 10.4 ln median PBM intensity, better of two orientations for the second.

First: B15
Second: B16
The binding signal of the first is higher: 10.4 ln median PBM intensity, better of two orientations for the first, 10.1 ln median PBM intensity, better of two orientations for the second.

First: B17
Second: B18
The binding signal of the first is lower: 10 ln median PBM intensity, better of two orientations for the first, 10.2 ln median PBM intensity, better of two orientations for the second.

B19 and B20 are the same in binding signal: 10.4 ln median PBM intensity, better of two orientations for the first, 10.4 ln median PBM intensity, better of two orientations for the second.

B21 and B22 are the same in binding signal: 10.1 ln median PBM intensity, better of two orientations for the first, 10.1 ln median PBM intensity, better of two orientations for the second.

B23 and B24 are the same in binding signal: 10.1 ln median PBM intensity, better of two orientations for the first, 10.1 ln median PBM intensity, better of two orientations for the second.

First: B25
Second: B26
The binding signal of the first is lower: 10.1 ln median PBM intensity, better of two orientations for the first, 10.4 ln median PBM intensity, better of two orientations for the second.

B27 and B28 are the same in binding signal: 10.1 ln median PBM intensity, better of two orientations for the first, 10.1 ln median PBM intensity, better of two orientations for the second.

First: B29
Second: B30
The binding signal of the first is lower: 10.2 ln median PBM intensity, better of two orientations for the first, 10.8 ln median PBM intensity, better of two orientations for the second.

Compared with B31, B32 is higher in binding signal: 10.1 ln median PBM intensity, better of two orientations for the first, 10.4 ln median PBM intensity, better of two orientations for the second.
